From patent US5441884

System: T1, Tn5401 TnpA transposase (Bacillus thuringiensis var. morrisoni EG2158)
T1 sequence: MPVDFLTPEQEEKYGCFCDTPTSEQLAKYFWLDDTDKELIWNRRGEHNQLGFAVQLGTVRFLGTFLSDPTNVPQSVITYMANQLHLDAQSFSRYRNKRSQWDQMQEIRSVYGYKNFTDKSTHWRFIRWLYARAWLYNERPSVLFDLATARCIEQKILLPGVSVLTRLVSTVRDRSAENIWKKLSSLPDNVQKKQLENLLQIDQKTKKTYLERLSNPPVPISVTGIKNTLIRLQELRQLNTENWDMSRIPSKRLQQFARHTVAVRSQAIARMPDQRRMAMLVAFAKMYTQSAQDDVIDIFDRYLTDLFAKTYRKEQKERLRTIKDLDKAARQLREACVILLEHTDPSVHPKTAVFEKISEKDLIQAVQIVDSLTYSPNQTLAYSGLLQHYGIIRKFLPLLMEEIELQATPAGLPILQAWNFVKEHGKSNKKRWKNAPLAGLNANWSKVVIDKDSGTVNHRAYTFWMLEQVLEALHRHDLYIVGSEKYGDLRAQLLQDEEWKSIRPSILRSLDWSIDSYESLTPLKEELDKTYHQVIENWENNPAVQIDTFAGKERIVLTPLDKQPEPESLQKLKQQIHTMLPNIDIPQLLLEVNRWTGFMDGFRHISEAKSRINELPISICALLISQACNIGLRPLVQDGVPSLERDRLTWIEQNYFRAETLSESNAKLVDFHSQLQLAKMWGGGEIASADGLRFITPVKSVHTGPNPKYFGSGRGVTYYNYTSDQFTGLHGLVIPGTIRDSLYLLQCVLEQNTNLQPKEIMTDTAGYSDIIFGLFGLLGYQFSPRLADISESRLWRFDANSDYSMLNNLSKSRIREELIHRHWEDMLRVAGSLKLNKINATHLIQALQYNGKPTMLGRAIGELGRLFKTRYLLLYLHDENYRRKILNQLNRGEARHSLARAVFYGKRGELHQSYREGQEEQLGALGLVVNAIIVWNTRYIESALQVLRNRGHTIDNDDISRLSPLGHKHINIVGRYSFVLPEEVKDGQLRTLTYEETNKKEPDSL
Test: cell_activity
Settings: pEG922 in plasmid-free B.t. EG7566; 10^-1 to 10^-2 in a plasmid-containing strain; functional transposition, binding not measured directly

Tn5401 transposon with 53 bp terminal inverted repeats
activity (transposition frequency): 0.0001
